# Source: IntAct's records for PubMed 25278935
# B1: Tyrosine-protein kinase YwqD (Bacillus subtilis), P96716 (parent)
# chain: MALRKNRGSRMQRNVIAMTEPKSLNSEQYRTIRTNIEFASVDRQMKSVMITSACPGEGKSTTAANLAVVFAQQGKKVLLIDADLRKPTVHTAFFLENTVGLTSVLLKKSSMEQAVQASNEKHLDVLTSGPIPPNPAELLSSKWMKELAYEACAAYDMVIFDTPPILAVADAQILGNVADGSVLVISSGKTEKEQAAKAKEALATCKSKLLGAIMNGKKLSKHSEYGYYGTKDNFMQK
# partner: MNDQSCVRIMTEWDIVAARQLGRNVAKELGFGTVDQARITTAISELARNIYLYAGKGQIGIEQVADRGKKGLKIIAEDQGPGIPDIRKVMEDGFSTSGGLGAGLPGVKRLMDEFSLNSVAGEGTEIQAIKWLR
# B2: Anti-sigma F factor (Bacillus subtilis), P10728 (parent)
# chain: MKNEMHLEFSALSQNESFARVTVASFIAQLDPTMDELTEIKTVVSEAVTNAIIHGYEENCEGKVYISVTLEDHVVYMTIRDEGLGITDLEEARQPLFTTKPELERSGMGFTIMENFMDDVSIDSSPEMGTTIRLTKHLSKSKALCN
# partner: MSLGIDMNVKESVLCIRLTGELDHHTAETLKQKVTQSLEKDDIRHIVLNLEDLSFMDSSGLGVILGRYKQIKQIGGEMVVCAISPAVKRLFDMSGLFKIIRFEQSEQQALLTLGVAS
# B3: HPr kinase/phosphorylase (Bacillus subtilis), O34483 (parent)
# chain: MAKVRTKDVMEQFNLELISGEEGINRPITMSDLSRPGIEIAGYFTYYPRERVQLLGKTELSFFEQLPEEEKKQRMDSLCTDVTPAIILSRDMPIPQELIDASEKNGVPVLRSPLKTTRLSSRLTNFLESRLAPTTAIHGVLVDIYGVGVLITGKSGVGKSETALELVKRGHRLVADDCVEIRQEDQDTLVGNAPELIEHLLEIRGLGIINVMTLFGAGAVRSNKRITIVMNLELWEQGKQYDRLGLEEETMKIIDTEITKLTIPVRPGRNLAVIIEVAAMNFRLKRMGLNAAEQFTNKLADVIEDGEQEE
# partner: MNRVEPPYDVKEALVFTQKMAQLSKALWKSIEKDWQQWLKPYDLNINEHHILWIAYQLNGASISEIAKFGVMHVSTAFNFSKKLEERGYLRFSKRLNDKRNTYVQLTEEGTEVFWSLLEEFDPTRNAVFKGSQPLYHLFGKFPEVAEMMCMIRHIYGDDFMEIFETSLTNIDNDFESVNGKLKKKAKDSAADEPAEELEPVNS
# B4: Serine/threonine-protein kinase RsbT (Bacillus subtilis), P42411 (parent)
# chain: B1 partner
# partner: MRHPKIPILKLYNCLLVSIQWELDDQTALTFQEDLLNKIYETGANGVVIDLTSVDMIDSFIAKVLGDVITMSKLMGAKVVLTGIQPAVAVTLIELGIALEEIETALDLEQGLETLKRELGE
# Variants of: B1
# Conditions: with rsbt_bacsu rsbT
row,effect of a mutation on the interaction,Variant
1,increasing interaction strength,MALRKNRGSRMQRNVIAMTEPKSLNSEQYRTIRTNIEFASVDRQMKSVMITSACPGEGKSTTAANLAVVFAQQGKKVLLIAADLRKPTVHTAFFLENTVGLTSVLLKKSSMEQAVQASNEKHLDVLTSGPIPPNPAELLSSKWMKELAYEACAAYDMVIFDTPPILAVADAQILGNVADGSVLVISSGKTEKEQAAKAKEALATCKSKLLGAIMNGKKLSKHSEYGYYGTKDNFMQK [D81A]

# Variants of: B2
# Conditions: with sp2aa_bacsu spoIIAA
row,effect of a mutation on the interaction,Variant
1,disrupting interaction strength,MKNEMHLEFSALSQNESFARVTVASFIAQLDPTMDELTEIKTVVSEAVTAAIIHGYEENCEGKVYISVTLEDHVVYMTIRDEGLGITDLEEARQPLFTTKPELERSGMGFTIMENFMDDVSIDSSPEMGTTIRLTKHLSKSKALCN

# Variants of: B3
# Conditions: with hpr_bacsu hpr
row,effect of a mutation on the interaction,Variant
1,disrupting interaction strength,MAKVRTKDVMEQFNLELISGEEGINRPITMSDLSRPGIEIAGYFTYYPRERVMLLGKTELSFFEQLPEEEKKQRMDSLCTDVTPAIILSRDMPIPQELIDASEKNGVPVLRSPLKTTRLSSRLTNFLESRLAPTTAIHGVLVDIYGVGVLITGKSGVGKSETALELVKRGHRLVADDCVEIRQEDQDTLVGNAPELIEHLLEIRGLGIINVMTLFGAGAVRSNKRITIVMNLELWEQGKQYDRLGLEEETMKIIDTEITKLTIPVRPGRNLAVIIEVAAMNFRLKRMGLNAAEQFTNKLADVIEDGEQEE [Q53M]

# Variants of: B4
# Conditions: with rsbs_bacsu rsbS
row,effect of a mutation on the interaction,Variant
1,disrupting interaction strength,MNDQSCVRIMTEWDIVAARQLGRNVAKELGFGTVDQARITTAISELARAIYLYAGKGQIGIEQVADRGKKGLKIIAEDQGPGIPDIRKVMEDGFSTSGGLGAGLPGVKRLMDEFSLNSVAGEGTEIQAIKWLR
